Measurements as given in patent publication US20230167164A1 (IMMUNOWAKE, published 2023).
Changes are numbered by the printed parent chain. Names and notes keep the numbering of the source. One block for each binder: values may come before it.

Experiments:
[1] = biological target: human PD-1 overexpressed on HEK-Blue reporter cells (human, UniProt Q15116 25-288); assay: cell-based or functional assay
[2] = biological target: human IL-12 receptor complex (human, UniProt P42701 24-662; Q99665 24-862); assay: cell-based or functional assay
human IL-12 receptor complex, sequence (Q99665 24-862, chain 2 of 2, other chains not shown): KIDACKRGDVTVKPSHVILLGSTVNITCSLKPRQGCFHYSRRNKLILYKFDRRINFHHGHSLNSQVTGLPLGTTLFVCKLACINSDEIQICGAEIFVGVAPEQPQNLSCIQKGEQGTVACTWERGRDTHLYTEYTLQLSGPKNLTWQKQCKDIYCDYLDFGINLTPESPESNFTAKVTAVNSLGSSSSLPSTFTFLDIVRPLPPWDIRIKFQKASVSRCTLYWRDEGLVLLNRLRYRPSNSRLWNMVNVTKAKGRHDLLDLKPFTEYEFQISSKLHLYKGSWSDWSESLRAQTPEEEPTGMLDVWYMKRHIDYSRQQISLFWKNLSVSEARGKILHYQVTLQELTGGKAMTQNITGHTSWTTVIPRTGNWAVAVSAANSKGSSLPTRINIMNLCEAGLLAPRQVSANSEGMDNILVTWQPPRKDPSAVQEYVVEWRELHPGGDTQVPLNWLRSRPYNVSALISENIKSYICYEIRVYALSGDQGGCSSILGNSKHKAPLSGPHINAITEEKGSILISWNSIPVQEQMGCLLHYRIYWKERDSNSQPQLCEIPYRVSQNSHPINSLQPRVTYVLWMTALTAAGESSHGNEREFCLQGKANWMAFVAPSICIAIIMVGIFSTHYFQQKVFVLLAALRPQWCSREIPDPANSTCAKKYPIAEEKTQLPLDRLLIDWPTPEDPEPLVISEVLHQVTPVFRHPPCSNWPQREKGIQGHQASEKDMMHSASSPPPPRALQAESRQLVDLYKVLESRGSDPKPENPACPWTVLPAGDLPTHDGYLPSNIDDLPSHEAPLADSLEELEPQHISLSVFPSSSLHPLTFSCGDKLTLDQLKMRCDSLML

human PD-1 = biological target: T1, human PD-1 (human, UniProt Q15116 25-167, limits assumed); assay: PD-L1-Fc format, calibrated on PD-L1(wt)-Fc binding affinity
T1 construct: nivolumab is called an anti-human PD-1 antibody; also called hPD-1
T1 sequence (Q15116 25-167 limits assumed): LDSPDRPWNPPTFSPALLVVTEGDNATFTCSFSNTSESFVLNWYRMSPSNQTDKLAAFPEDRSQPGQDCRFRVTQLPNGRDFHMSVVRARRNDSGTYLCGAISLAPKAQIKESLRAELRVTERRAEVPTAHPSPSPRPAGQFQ

mouse PD-1 = biological target: T2, mouse PD-1 (mouse, UniProt Q02242 25-167, limits assumed); assay: as above
T2 construct: also called mPD-1
T2 sequence (looked up): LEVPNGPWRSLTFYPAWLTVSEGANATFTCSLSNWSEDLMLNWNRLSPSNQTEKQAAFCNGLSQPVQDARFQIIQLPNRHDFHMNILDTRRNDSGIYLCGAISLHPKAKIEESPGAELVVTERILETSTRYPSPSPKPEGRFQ

human PD-1 overexpressed on HEK-Blue reporter cells, sequence (Q15116 25-288): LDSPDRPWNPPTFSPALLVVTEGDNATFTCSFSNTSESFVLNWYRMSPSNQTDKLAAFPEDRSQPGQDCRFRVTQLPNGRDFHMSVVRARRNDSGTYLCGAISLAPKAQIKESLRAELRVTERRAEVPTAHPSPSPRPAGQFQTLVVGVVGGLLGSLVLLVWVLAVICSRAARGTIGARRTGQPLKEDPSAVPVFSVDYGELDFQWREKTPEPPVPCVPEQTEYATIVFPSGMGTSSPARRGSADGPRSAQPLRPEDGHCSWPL

IL-12 signal transduction, % of rIL-12, HEK-IL-12-PD-1 cells [1]: 25% | IL-12 signal transduction, % of rIL-12, HEK-IL-12 cells [2]: 1%
B1: PD-L1(mut2)-Fc/IL-12(E59A/F60A) (Fc fusion)
chain 1: FTVTVPKDLYVVEYGSNMTIECKFPVEKQLDLAALQVYWMMEDKNIIQFVHGEEDLKVQHSSYRQRARLLKDQLSLGNAALQITDVKLQDAGVYTCLIAYKGADYKRITVKVNAPYNKINQRILVVDPVTSEHELTCQAEGYPKAEVIWTSSDHQVLSGKTTTTNSKREEKLFNVTSTLRINTTTNEIFYCTFRRLDPEENHTAELVIPELPLAHPPNERGGGGSGGGDKTHTCPPCPAPEDEGGPSVFLFPPKPKDTLMISRTPEVTCVVVDVSHEDPEVKFNWYVDGVEVHNAKTKPREEQYNSTYRVVSVLTVLHQDWLNGKEYKCKVSNKALPAPIEKTISKAKGQPREPQVYVYPPSREEMTKNQVSLTCLVKGFYPSDIAVEWESNGQPENNYKTTPPVLDEDGSFALVSKLTVDKSRWQQGNVFSCSVMHEALHNHYTQKSLSLSPGKGGGGSGGGIWELKKDVYVVELDWYPDAPGEMVVLTCDTPEEDGITWTLDQSSEVLGSGKTLTIQVKAAGDAGQYTCHKGGEVLSHSLLLLHKKEDGIWSTDILKDQKEPKNKTFLRCEAKNYSGRFTCWWLTTISTDLTFSVKSSRGSSDPQGVTCGAATLSAERVRGDNKEYEYSVECQEDSACPAAEESLPIEVMVDAVHKLKYENYTSSFFIRDIIKPDPPKNLQLKPLKNSRQVEVSWEYPDTWSTPHSYFSLTFCVQVQGKSKREKKDRVFTDKTSATVICRKNASISVRAQDRYYSSSWSEWASVPCSGGGGSGGGSGGGGSRNLPVATPDPGMFPCLHHSQNLLRAVSNMLQKARQTLEFYPCTSEEIDHEDITKDKTSTVEACLPLELTKNESCLNSRETSFITNGSCLASRKTSFMMALCLSSIYEDLKMYQVEFKTMNAKLLMDPKRQIFLDQNMLAVIDELMQALNFNSETVPQKSSLEEPDFYKTKIKLCILLHAFRIRAVTIDRVMSYLNAS
chain 2: FTVTVPKDLYVVEYGSNMTIECKFPVEKQLDLAALQVYWMMEDKNIIQFVHGEEDLKVQHSSYRQRARLLKDQLSLGNAALQITDVKLQDAGVYTCLIAYKGADYKRITVKVNAPYNKINQRILVVDPVTSEHELTCQAEGYPKAEVIWTSSDHQVLSGKTTTTNSKREEKLFNVTSTLRINTTTNEIFYCTFRRLDPEENHTAELVIPELPLAHPPNERGGGGSGGGDKTHTCPPCPAPEKKGGPSVFLFPPKPKDTLMISRTPEVTCVVVDVSHEDPEVKFNWYVDGVEVHNAKTKPREEQYNSTYRVVSVLTVLHQDWLNGKEYKCKVSNKALPAPIEKTISKAKGQPREPQVYVLPPSREEMTKNQVSLLCLVKGFYPSDIAVEWESNGQPENRYMTWPPVLDSDGSFFLYSKLTVDKSRWQQGNVFSCSVMHEALHNHYTQKSLSLSPGK

Kd (human PD-1): 150 nM | Kd (mouse PD-1): 120 nM
B2: PD-L1(mut2)-Fc (Fc fusion)
chain 1: B1 chain 2 with K242D, K243E, L359Y, L374T, R398N, M400K, W402T, S408E, F413A, Y415V
chain 2: B1 chain 2
notes: also called PD-L1(I54Q/E58M/R113T/M115L/S117A/G119K)

Kd (human PD-1): 910 nM | Kd (mouse PD-1): 820 nM
B3: PD-L1(mut3)-Fc (Fc fusion)
chain 1: FTVTVPKDLYVVEYGSNMTIECKFPVEKQLDLAALQVYWEMEDKNIIQFVHGEEDLKVQHSSYRQRARLLKDQLSLGNAALQITDVKLQDAGVYTCLIAYKGADYKRITVKVNAPYNKINQRILVVDPVTSEHELTCQAEGYPKAEVIWTSSDHQVLSGKTTTTNSKREEKLFNVTSTLRINTTTNEIFYCTFRRLDPEENHTAELVIPELPLAHPPNERDKTHTCPPCPAPEDEGGPSVFLFPPKPKDTLMISRTPEVTCVVVDVSHEDPEVKFNWYVDGVEVHNAKTKPREEQYNSTYRVVSVLTVLHQDWLNGKEYKCKVSNKALPAPIEKTISKAKGQPREPQVYVYPPSREEMTKNQVSLTCLVKGFYPSDIAVEWESNGQPENNYKTTPPVLDEDGSFALVSKLTVDKSRWQQGNVFSCSVMHEALHNHYTQKSLSLSPGK
chain 2: B3 chain 1 with D234K, E235K, Y351L, T366L, N390R, K392M, T394W, E400S, A405F, V407Y
notes: also called I54Q/R113T/M115L/S117A/G119K
